Measured values reported in US20200339700A1 (Bristol-Myers Squibb, published 2020).

Assays:
[1] = target: T1, human CD40 (human, UniProt P25942 21-193); assay: ELISA; further experiments (Table 6 ELISA), reference value in the text
T1 construct: also called huCD40; TNFRSF5
Method: (§1) An ELISA was performed to confirm that the improved antibodies retained affinity for CD40.

[2] = target: T1, human CD40; assay: ELISA; first screen of the VL/VH pairs (Table 4), head in nM
[3] = target: T1, human CD40; assay: ELISA
[4] = target: T1, human CD40; assay: antigen binding (method not named; ELISA in the rest of Example 2)
[5] = target: T1, human CD40; assay: ELISA; remark: listed apart in the source
Method: as §1

[6] = target: T1, human CD40; assay: ELISA; further experiments (Table 6), 4 day titer
Method: as §1

T1 sequence (P25942 21-193 limits assumed): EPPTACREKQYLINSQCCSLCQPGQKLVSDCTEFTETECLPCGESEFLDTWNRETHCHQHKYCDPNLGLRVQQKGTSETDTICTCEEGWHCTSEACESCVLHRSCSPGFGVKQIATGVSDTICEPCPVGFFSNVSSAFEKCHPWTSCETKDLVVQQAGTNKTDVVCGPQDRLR

Row | Kd [3] [nM] | Kapp [4] [nM] | Binder | also measured
1 | – | – | antibody 12D6-24 (antibody, human IgG1, kappa, V domains shown, also called mAb 12D6-24; unmodified 12D6-24) VH: QVQLVQSGAEVKKPGASVKVSCKASGYTFTGYNMNWVRQAPGQGLEWMGNIDPYYGNTNYNQKFKGRVTMTTDTSTSTAYMELRSLRSDDTAVYYCARLGLQLYALDYWGQGTTVTVSS VL: DIVMTQTPLSLPVTPGEPASISCRSSQSLVHSNANTYLHWYLQKPGQSPQLLIYKLTNRFFGVPDRFSGSGSGTDFTLKISRVEAEDVGVYYCSQSIHVPWTFGGGTKVEIKR | Kd [1]: 0.24 nM; Kd [2]: 0.2 nM
2 | 0.6 | – | 12D6-24 variant L1H2 (antibody, human IgG1, V domains shown) VH: QVQLVQSGAEVKKPGSSVKVSCKASGYTFTGYNMNWVRQAPGQGLEWMGNIDPYYGNTNYNQKFKGKTTLTADKSTSTAYMELSSLRSDDTAVYYCARLGLQLYALDYWGQGTLVTVSS VL: DIVMTQTPLSLPVTPGEPASISCRSSQSLVHSNANTYLHWYLQKPGQSPQLLIYKLTNRFFGVPDRFSGSGSGTDFTLKISRVEAEDVGVYYCSQSIHVPWTFGGGTKVEIK | –
3 | – | 0.24 | 12D6-24-L4H4 (antibody, human IgG1, V domains shown) VH: QVQLVQSGAEVKKPGASVKVSCKASGYTFTGYNMNWVRQAPGQGLEWMGNIDPYYGNTNYNQKFKGRTTLTADTSTSTAYMELSSLRSDDTAVYYCARLGLQLYALDYWGQGTLVTVSS VL: DIVLTQSPDSLAVSLGERATINCRASQSLVHSNANTYLHWYQQKPGQPPKLLIYKLTNRFFGVPDRFSGSGSGTDFTLTISSLQAEDVAVYYCQQSIHVPWTFGQGTKLEIK | Kd [5]: 240 nM
4 | 1.6 | – | 12D6-24 variant L5H1 (antibody, human IgG1, V domains shown) VH: QVQLVQSGAEVKKPGASVKVSCKASGYTFTGYNMNWVRQAPGQGLEWMGNIDPYYGNTNYNQKFKGRVTMTTDTSTSTAYMELRSLRSDDTAVYYCARLGLQLYALDYWGQGTTVTVSS VL: EIVMTQSPATLSVSPGERATLSCRASQSVSSNLAWYLHWYLQKPGQAPRLLIYKLTNRFFGIPARFSGSGSGTDFTLTISRVEAEDFAVYYCQQSIHVPWTFGQGTKVEIK | –
5 | > 100 | – | 12D6-24 variant L3H1 (antibody, human IgG1, V domains shown) VH: QVQLVQSGAEVKKPGASVKVSCKASGYTFTGYNMNWVRQAPGQGLEWMGNIDPYYGNTNYNQKFKGRVTMTTDTSTSTAYMELRSLRSDDTAVYYCARLGLQLYALDYWGQGTTVTVSS VL: EIVMTQSPATLSVSPGERATLSCRSSQSLVHSNANTYQQKPGQAPRLLIYKLTNRFFGIPDRFSGSGSGTDFTLTISRVEAEDFAVYYCQQSIHVPWTFGQGTKVEIK | –
6 | > 100 | – | 12D6-24 variant L2H1 (antibody, human IgG1, V domains shown) VH: QVQLVQSGAEVKKPGASVKVSCKASGYTFTGYNMNWVRQAPGQGLEWMGNIDPYYGNTNYNQKFKGRVTMTTDTSTSTAYMELRSLRSDDTAVYYCARLGLQLYALDYWGQGTTVTVSS VL: EIVMTQSPATLSVSPGERATLSCRASQSVSSNLAWYQQKPGQAPRLLIYKLTNRFFGIPARFSGSGSGTDFTLTISRVEAEDFAVYYCQQSIHVPWTFGQGTKVEIK | –
7 | – | 0.25 | 12D6-24 variant L4H2 (antibody, human IgG1, V domains shown) VH: QVQLVQSGAEVKKPGSSVKVSCKASGYTFTGYNMNWVRQAPGQGLEWMGNIDPYYGNTNYNQKFKGKTTLTADKSTSTAYMELSSLRSDDTAVYYCARLGLQLYALDYWGQGTLVTVSS VL: DIVLTQSPDSLAVSLGERATINCRASQSLVHSNANTYLHWYQQKPGQPPKLLIYKLTNRFFGVPDRFSGSGSGTDFTLTISSLQAEDVAVYYCQQSIHVPWTFGQGTKLEIK | Kd [6]: 0.25 nM; Kd [2]: 0.2 nM
8 | – | 0.25 | 12D6-24-L4H1 (antibody, human IgG1, V domains shown) VH: QVQLVQSGAEVKKPGASVKVSCKASGYTFTGYNMNWVRQAPGQGLEWMGNIDPYYGNTNYNQKFKGRVTMTTDTSTSTAYMELRSLRSDDTAVYYCARLGLQLYALDYWGQGTTVTVSS VL: DIVLTQSPDSLAVSLGERATINCRASQSLVHSNANTYLHWYQQKPGQPPKLLIYKLTNRFFGVPDRFSGSGSGTDFTLTISSLQAEDVAVYYCQQSIHVPWTFGQGTKLEIK | Kd [6]: 0.25 nM; Kd [2]: 0.2 nM
9 | – | 0.22 | 12D6-24 variant L1H4 (antibody, human IgG1, V domains shown) VH: QVQLVQSGAEVKKPGASVKVSCKASGYTFTGYNMNWVRQAPGQGLEWMGNIDPYYGNTNYNQKFKGRTTLTADTSTSTAYMELSSLRSDDTAVYYCARLGLQLYALDYWGQGTLVTVSS VL: DIVMTQTPLSLPVTPGEPASISCRSSQSLVHSNANTYLHWYLQKPGQSPQLLIYKLTNRFFGVPDRFSGSGSGTDFTLKISRVEAEDVGVYYCSQSIHVPWTFGGGTKVEIK | Kd [5]: 230 nM
10 | > 100 | – | 12D6-24 variant L2H2 (antibody, human IgG1, V domains shown) VH: QVQLVQSGAEVKKPGSSVKVSCKASGYTFTGYNMNWVRQAPGQGLEWMGNIDPYYGNTNYNQKFKGKTTLTADKSTSTAYMELSSLRSDDTAVYYCARLGLQLYALDYWGQGTLVTVSS VL: EIVMTQSPATLSVSPGERATLSCRASQSVSSNLAWYQQKPGQAPRLLIYKLTNRFFGIPARFSGSGSGTDFTLTISRVEAEDFAVYYCQQSIHVPWTFGQGTKVEIK | –
11 | 1.6 | – | 12D6-24 variant L5H2 (antibody, human IgG1, V domains shown) VH: QVQLVQSGAEVKKPGSSVKVSCKASGYTFTGYNMNWVRQAPGQGLEWMGNIDPYYGNTNYNQKFKGKTTLTADKSTSTAYMELSSLRSDDTAVYYCARLGLQLYALDYWGQGTLVTVSS VL: EIVMTQSPATLSVSPGERATLSCRASQSVSSNLAWYLHWYLQKPGQAPRLLIYKLTNRFFGIPARFSGSGSGTDFTLTISRVEAEDFAVYYCQQSIHVPWTFGQGTKVEIK | –
